Experimental data taken from FireProtDB (doi:10.1021/bi00358a035).
“And” between values parts separate entries of the source, which are not always exact repeats. Equal values may be shown once.

B1: Tryptophan synthase alpha chain, P0A877 (parent)
chain: MERYESLFAQLKERKEGAFVPFVTLGDPGIEQSLKIIDTLIEAGADALELGIPFSDPLADGPTIQNATLRAFAAGVTPAQCFEMLALIRQKHPTIPIGLLMYANLVFNKGIDEFYAQCEKVGVDSVLVADVPVEESAPFRQAALRHNVAPIFICPPNADDDLLRQIASYGRGYTYLLSRAGVTGAENRAALPLNHLVAKLKEYNAAPPLQGFGISAPDQVKAAIDAGAAGAISGSAIVKIIEQHINEPEKMLAALKVFVQPMKAATRS

Variants of: B1
Settings: Escherichia coli (strain K12); pH 7.8; 25 °C; Urea; CD; Potassium phosphate 10 mM; transition: 3; reversible: yes (>90%); structure 1WQ5; whole UniProt chain shown

Variant | denaturant m value | denaturant midpoint (higher = more stable) | unfolding free energy | ddG of mutation (higher = less stable)
F22L | 3.1 kcal/mol/M and 1.2 kcal/mol/M | 2.54 M and 3.62 M | 7.9 kcal/mol and 4.2 kcal/mol | 
G211E | 3 kcal/mol/M and 1.5 kcal/mol/M | 2.73 M and 3.72 M | 8.1 kcal/mol and 5.4 kcal/mol | 
G234D | 2.6 kcal/mol/M and 1.8 kcal/mol/M | 2.78 M and 3.99 M | 7.1 kcal/mol and 7 kcal/mol | -1.4 kcal/mol and -2 kcal/mol
G234K | 2.3 kcal/mol/M and 1.2 kcal/mol/M | 2.65 M and 3.81 M | 6.2 kcal/mol and 4.7 kcal/mol | 
E49M | 2.8 kcal/mol/M and 1.4 kcal/mol/M | 3.33 M and 4.92 M | 9.4 kcal/mol and 7 kcal/mol | -3.7 kcal/mol and -2 kcal/mol
